US20040224408A1, “THAP proteins as nuclear receptors for chemokines and roles in transcriptional regulation, cell proliferation and cell differentiation” (published 2004)

T1: human chemokine SLC/CCL21, mature form (amino acids 24-134) (human, UniProt O00585 24-134)
T1 construct: also called SLC/6Ckine; SLC/CCL21 wild type
T1 sequence: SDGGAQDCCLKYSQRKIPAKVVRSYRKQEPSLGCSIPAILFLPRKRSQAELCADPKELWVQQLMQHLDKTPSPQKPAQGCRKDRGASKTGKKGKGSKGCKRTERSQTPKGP

T2: THAP1 THAP domain (Homo sapiens, UniProt Q9NVV9 SEQ:1-90)
T2 sequence: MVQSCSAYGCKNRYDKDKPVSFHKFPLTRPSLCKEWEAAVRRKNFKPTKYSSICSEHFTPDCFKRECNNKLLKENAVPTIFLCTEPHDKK

T3: human THAP1 (THanatos (death)-Associated Protein-1), full length (human, UniProt Q9NVV9 1-213)
T3 construct: also called hTHAP1; FLJ10477
T3 sequence: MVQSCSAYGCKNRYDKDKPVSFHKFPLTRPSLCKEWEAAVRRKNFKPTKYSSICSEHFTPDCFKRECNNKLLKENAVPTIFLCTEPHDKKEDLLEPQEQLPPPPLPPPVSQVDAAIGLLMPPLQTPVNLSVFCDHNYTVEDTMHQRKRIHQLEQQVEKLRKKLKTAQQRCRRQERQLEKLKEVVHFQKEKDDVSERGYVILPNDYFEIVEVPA

B1: THAP1-C3 deletion mutant (amino acids 143-213) (other)
chain: MHQRKRIHQLEQQVEKLRKKLKTAQQRCRRQERQLEKLKEVVHFQKEKDDVSERGYVILPNDYFEIVEVPA
notes: Tested as a Gal4-BD or Gal4-AD fusion, as in vitro translated 35S-labelled protein and as an EGFP fusion
B2: THAP1-C2 deletion mutant (amino acids 120-213) (other)
chain: MPPLQTPVNLSVFCDHNYTVEDTMHQRKRIHQLEQQVEKLRKKLKTAQQRCRRQERQLEKLKEVVHFQKEKDDVSERGYVILPNDYFEIVEVPA
notes: as for B1
B3: 3mut5 (dsDNA)
DNA 1: AGCAAGTAAGGGAAAACTACTTCAT
DNA 2: ATGAAGTAGTTTTCCCTTACTTGCT
B4: 3mut3 (dsDNA)
DNA 1: AGCAAGTAAGGTCAAACTACTTCAT
DNA 2: ATGAAGTAGTTTGACCTTACTTGCT
B5: 3mut14 (dsDNA)
DNA 1: AGCAAGTAAGGGCCAACTACTTCAT
DNA 2: ATGAAGTAGTTGGCCCTTACTTGCT
B6: 3mut4 (dsDNA)
DNA 1: AGCAAGTAAGTGCAAACTACTTCAT
DNA 2: ATGAAGTAGTTTGCACTTACTTGCT
B7: human chemokine ELC/CCL19, mature form (amino acids 22-98) (ligand)
chain: GTNDAEDCCLSVTQKPIPGYIVRNFHYLLIKDGCRVPAVVFTTLRGRQLCAPPDQPWVERIIQRLQRTSAKMKRRSS
notes: The range is stated on the GenBank entry; Tested as a Gal4-BD fusion (pGBKT7-CCL19) and as in vitro translated 35S-labelled protein from that vector; also called MIP3b/CCL19
B8: human chemokine MIG/CXCL9, mature form (amino acids 23-125) (ligand)
chain: TPVVRKGRCSCISTNQGTIHLQSLKDLKQFAPSPSCEKIEIIATLKNGVQTCLNPDSADVKELIKKWEKQVSQKKKQKNGKKHQKKKVLKVRKSQRSRQKKTT
notes: The range is stated on the GenBank entry; Tested as a Gal4-BD fusion (pGBKT7-CXCL9) and as in vitro translated 35S-labelled protein from that vector
B9: THAP1-C1 deletion mutant (amino acids 90-213) (other)
chain: KEDLLEPQEQLPPPPLPPPVSQVDAAIGLLMPPLQTPVNLSVFCDHNYTVEDTMHQRKRIHQLEQQVEKLRKKLKTAQQRCRRQERQLEKLKEVVHFQKEKDDVSERGYVILPNDYFEIVEVPA
notes: Tested as a Gal4-BD or Gal4-AD fusion, as in vitro translated 35S-labelled protein and as an EGFP fusion; also called THAP1ΔTHAP; THAP1?THAP
B10: THAP1-N3 deletion mutant (amino acids 1-192) (other)
chain: MVQSCSAYGCKNRYDKDKPVSFHKFPLTRPSLCKEWEAAVRRKNFKPTKYSSICSEHFTPDCFKRECNNKLLKENAVPTIFLCTEPHDKKEDLLEPQEQLPPPPLPPPVSQVDAAIGLLMPPLQTPVNLSVFCDHNYTVEDTMHQRKRIHQLEQQVEKLRKKLKTAQQRCRRQERQLEKLKEVVHFQKEKDD
notes: as for B1
B11: human chemokine I-TAC/CXCL11, mature form (amino acids 22-94) (ligand)
chain: FPMFKRGRCLCIGPGVKAVKVADIEKASIMYPSNNCDKIEVIITLKENKGQRCLNPKSKQARLIIKKVERKNF
notes: The range is stated on the GenBank entry; Tested as a Gal4-BD fusion (pGBKT7-CXCL11) and as in vitro translated 35S-labelled protein from that vector

Biological target: T1, human chemokine SLC/CCL21, mature form …
Experiment: yeast two-hybrid, pGADT7-THAP1 mutant with pGBKT7-SLC/CCL21
Conditions: not given
Experimental: Two-hybrid interaction between THAP1 mutants and chemokine SLC/CCL21 was tested by cotransformation of AH109 with pGADT7-THAP1-C1, -C2, -C3, -N1, -N2 or -N3 and pGBKT7-SLC/CCL21 and selection of transformants by His and Ade double auxotrophy according to manufacturer's instructions ([…] two-hybrid system 3, Clontech). pGBKT7-SLC/CCL21 vector was generated by subcloning the BamHI SLC/CCL21 fragment from pGBT9-SLC (see example 1) into the unique BamHI cloning site of vector pGBKT7 (Clontech).

Row | binding result | Binder
1 | binds | B1
2 | binds | B2

Biological target: T2, THAP1 THAP domain
Experiment: EMSA; 20 mM Tris-HCl pH 7.5, 100 mM KCl, room temperature
Conditions: tags: C-terminal His6 (pET-21c); label: 32P
Experimental: To confirm that the THAP domain is a novel sequence specific DNA-binding domain, electrophoretic mobility shift assays (EMSA) were carried out using wild-type or mutant THAP domain responsive elements (THRE) determined by SELEX (see Example 28 and FIGS. 18 and 24). Double-stranded probes used in EMSA experiments were purified on 12% polyacrylamide gels, ³²P end labeled with T4 polynucleotide kinase and quantified by Cerenkov counting. About 20 ng of purified THAP domain from human THAP1 (prepared as described in Example 28) was incubated with 30000 cpm of the appropriate probe (about 2 ng). Binding reactions were carried out for 10 minutes at room temperature in 20 μl binding buffer (20 mM Tris-HCl pH 7.5, 100 mM KCl, 0.1% NP-40, 100 μg/ml BSA, 2.5 mM DTT, 5% glycerol, 200 ng poly (dI-dC)). Electrophoresis was performed on 8% (29:1) polyacrylamide gels containing 5% glycerol. Gels were run in 0.25×TBE at 150V and 4° C., dried and exposed on a phosphoimager screen (Molecular Dynamics). Sequences of wild type and mutant THRE oligonucleotides used in EMSA experiments were as follow (mutations are indicated in bold): wild-type probe 3, 5′-[…]-3′ (SEQ ID NO: 313); mutant probe 3mut1, 5′-[…]-3′ (SEQ ID NO: 314); mutant probe 3mut3, 5′-[…]-3′ (SEQ ID NO: 319); mutant probe 3mut4, 5′-[…]-3′ (SEQ ID NO: 320); mutant probe 3mut14, 5′-[…]-3′ (SEQ ID NO: 321); mutant probe 3mut5, 5′-[…]-3′ (SEQ ID NO: 322).
For competition experiments, 50-, 150-, and 250-fold molar excess of unlabelled wild-type (THRE competitor, probe 3) or mutant (non-specific competitor, probe 3mut1) THRE oligonucleotides were added to the reaction mixture just before the addition of the probe.

Row | Binder | binding result
3 | B3 | no binding
4 | B4 | no binding
5 | B5 | no binding
6 | B6 | no binding

Biological target: T3, human THAP1 (THanatos …)
Experiment: yeast two-hybrid, pGADT7-THAP1 with pGBKT7-chemokine
Conditions: not given
Description: […]

Row | Binder | binding result
7 | B7 | binds
8 | B8 | binds

Biological target: T3, human THAP1 (THanatos …)
Experiment: yeast two-hybrid, pGADT7-THAP1 mutant with pGBKT7-THAP1 wild-type
Conditions: not given
Experimental: Two-hybrid interaction between THAP1 mutants and THAP1 wild type was tested by cotransformation of AH109 with pGADT7-THAP1-C1, -C2, -C3, -N1, -N2 or -N3 and pGBKT7-THAP1 wild-type and selection of transformants by His and Ade double auxotrophy according to manufacturer's instructions ([…] two-hybrid system 3, Clontech).

Row | Binder | binding result
9 | B9 | binds
10 | B10 | binds
11 | B1 | binds
12 | B2 | binds

Biological target: T4, Glutathione S-transferase (GST) control protein (pGEX-2T) (UniProt P08515 1-218 = GST)
T4 construct: Negative control immobilized on glutathione sepharose; also called GST beads; immobilized GST alone
T4 sequence (P08515 whole entry): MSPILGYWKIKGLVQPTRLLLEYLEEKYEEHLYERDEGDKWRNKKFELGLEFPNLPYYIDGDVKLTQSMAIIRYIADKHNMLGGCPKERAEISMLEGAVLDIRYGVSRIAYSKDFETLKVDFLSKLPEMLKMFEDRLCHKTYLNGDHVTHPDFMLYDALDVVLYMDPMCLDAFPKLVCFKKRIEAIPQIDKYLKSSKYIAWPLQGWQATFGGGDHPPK
Experiment: GST pull-down, immobilized GST control, in vitro translated 35S-labelled chemokine
Conditions: not given
Experimental: To confirm the interaction observed in yeast two-hybrid system, we performed in vitro GST pull down assays. THAP1, expressed as a GST-tagged fusion protein and immobilized on glutathione sepharose, was incubated with radiolabeled chemokines that were translated in vitro.
In vitro-translated chemokines were generated with the TNT-coupled reticulocyte lysate system (Promega, Madison, Wis., USA) using as templates pGBKT7-CCL21, -CCL19, -CXCL9, -CXCL10 and CXCL11 chemokine vectors (see Example 32) or pCMV-SPORT6-CCL5 plasmid (Image clone No. 4185200). In vitro-translated IFNγ cytokine was generated similarly using as template plasmid pGBKT7-IFNγ. A 25 μvolume of ³⁵S-labelled chemokine was incubated with immobilized GST-THAP1 or GST proteins overnight at 4° C., in the following binding buffer: 10 mM NaPO4 pH 8.0, 140 mM NaCl, 3 mM MgCl₂, 1 mM dithiothreitol (DTT), 0.05% NP40, and 0.2 mM phenylmethyl sulphonyl fluoride (PMSF), 1 mM Na vanadate, 50 mM β-glycerophosphate, 25 μg/ml chymotrypsine, 5 μg/ml aprotinin, and 10 μg/ml leupeptin. Beads were then washed 5 times in 1 ml binding buffer. Bound proteins were eluted with 2×Laemmli SDS-PAGE sample buffer, fractionated by 10% SDS-PAGE and visualized by fluorography using Amplify (Amersham Pharmacia Biotech). GST/THAP1 specifically bound to chemokines CCL21, CCL19, CCL5, CXCL9, CXCL10 and CXCL11 but not cytokine IFNγ (FIGS. 19 and 20). […] CXCL10 also bound to immobilized GST-THAP1 (indicated by ++ in the column labelled “In vitro binding to GST-THAP1”).

Row | binding result | Binder
13 | no binding | B7
14 | no binding | B8
15 | no binding | B11
